In article PMC2883070 (Molecular Microbiology, 2010):
Blank lines part the entries; values can stand above or below the binder they belong to.

Molecular target: T1, His-FliM (E. coli W3110, UniProt P06974 1-334)
T1 sequence (looked up): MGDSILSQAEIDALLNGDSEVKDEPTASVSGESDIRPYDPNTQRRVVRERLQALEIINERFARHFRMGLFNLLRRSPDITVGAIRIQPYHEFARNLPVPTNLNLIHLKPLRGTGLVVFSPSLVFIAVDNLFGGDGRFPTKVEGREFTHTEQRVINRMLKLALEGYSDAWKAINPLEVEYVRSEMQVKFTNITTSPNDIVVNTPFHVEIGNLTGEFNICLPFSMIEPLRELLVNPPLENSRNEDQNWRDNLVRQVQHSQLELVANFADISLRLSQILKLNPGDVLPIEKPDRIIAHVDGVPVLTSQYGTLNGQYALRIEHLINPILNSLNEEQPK
Test: SPR

Kd: 1.63 µM
B1: CheY-His (natural protein, E. coli W3110)
chain: ADKELKFLVVDDFSTMRRIVRNLLKELGFNNVEEAEDGVDALNKLQAGGYGFVISDWNMPNMDGLELLKTIRADGAMSALPVLMVTAEAKKENIIAAAQAGASGYVVKPFTAATLEEKLNKIFEKLGM

Kd: 9.4 µM
B2: AcCheY-His (natural protein, E. coli W3110)
chain: B1 chain
modifications: acetyl-lysine at 91 and 109 (found by LC-MS/MS)
